From article PMC9302846, “Three enigmatic BioH isoenzymes are programmed in the early stage of mycobacterial biotin synthesis, an attractive anti-TB drug target” (PLoS Pathogens, 2022) come the findings set out here.

The target of data set [1] is Seleno-methionine (Se-Met) substituted BioH3 protein (Mycobacterium smegmatis MC2 155) (UniProt A0R6Y0). Briefly: crystal structure; Se-substituted BioH3, sitting-drop vapor diffusion at 16°C; 20 mM citric acid, 80 mM Bis-Tris propane pH 8.8, 16% PEG3350; SAD; space group P2(1), six molecules per asymmetric unit.
Data set [2] concerns the molecule itself. Nature of the data set: SEC; Superdex 200 Increase column; protein dialyzed in 20 mM Tris-HCl (pH 8.0), 150 mM NaCl and concentrated to ~15 mg/ml.

As usually defined, the stoichiometry N is the number of molecules, sites or subunits per partner or assembly. “Seleno-methionine (Se-Met) substituted BioH3 protein (from UniProt A0R6Y0 1-282) (enzyme)” showed a stoichiometry N in data set [1] of 2.

B1: BioH2 (MSMEG_1352) of M. smegmatis MC2 155, hexa-histidine-tagged (enzyme, Mycobacterium smegmatis MC2 155, UniProt A0QS51 1-305, looked up)
chain: MQTRTGLARAGDADHPIDLFYEDMGDPGDPAVLLIMGLGAQMLMWRTEFCEKLVDQGLRVIRFDNRDVGLSTKLSGQRVDSPLALRMARSFLGKRSPAVYTLEDMADDAAALLDHLEIDRAHIVGGSMGGMIAQVFASQHAARTETLGVIFSSNNQALLPPPGIRQLLSLITGPPADASRDAVLDNAVRLSRLNGSPAYPRSEEEIRAEAAELYDRAYYPAGIARHFAAILGSGSLRHHNERVTAPTVVIHGRADRLMPPSGGRAIANAIRGARMVLIDGMGHELPEPVWDEVIGELKTNFAVVG
notes: BioH2, product of MSMEG_1352 of Mycobacterium smegmatis MC2 155; source: E. coli BL21(DE3), pET28a, purified (nickel column, dialysis)
On to B1, for which, in data set [2], the binding result was “binds”.
